What all share (experiment): cross-linking
Test [1] addresses Recombinant full-length human apolipoprotein A-I F71Y (human).
The target of test [2] is Recombinant full-length human apolipoprotein A-I L159R (Finnish variant) (human).
Test [3] has as its target Recombinant full-length human apolipoprotein A-I L170P (human).

What is called stoichiometry N is a count of units in the complex or per binding partner.

Turning to “Recombinant full-length human apolipoprotein A-I F71Y (natural protein)”, the stoichiometry N in test [1] was found to be 2.

On to “Recombinant full-length human apolipoprotein A-I L159R (Finnish variant) (natural protein)”, for which the stoichiometry N in test [2] was found to be 2.

Turning to “Recombinant full-length human apolipoprotein A-I L170P (natural protein)”, the stoichiometry N in test [3] was determined as 2.

For the origin of these results see PMC6067968.
